Publication PMC6917434 (Journal of thrombosis and haemostasis : JTH, 2019)
Like-named read-outs stand apart in the source and are kept apart here. Each block holds one molecule with its values, some of them ahead of it.

Legend:
Assay in all cases: single-molecule atomic force microscopy
[1] = target: Factor XIII A subunit of plasma-purified inactive factor XIII (pFXIII-A2B2) (human) (UniProt P00488)
[2] = target: T1, recombinant inactive factor XIII A subunit from ZymoGenetics (rFXIII-A2) (human), P00488; details: remark: other sources report otherwise
T1 chain: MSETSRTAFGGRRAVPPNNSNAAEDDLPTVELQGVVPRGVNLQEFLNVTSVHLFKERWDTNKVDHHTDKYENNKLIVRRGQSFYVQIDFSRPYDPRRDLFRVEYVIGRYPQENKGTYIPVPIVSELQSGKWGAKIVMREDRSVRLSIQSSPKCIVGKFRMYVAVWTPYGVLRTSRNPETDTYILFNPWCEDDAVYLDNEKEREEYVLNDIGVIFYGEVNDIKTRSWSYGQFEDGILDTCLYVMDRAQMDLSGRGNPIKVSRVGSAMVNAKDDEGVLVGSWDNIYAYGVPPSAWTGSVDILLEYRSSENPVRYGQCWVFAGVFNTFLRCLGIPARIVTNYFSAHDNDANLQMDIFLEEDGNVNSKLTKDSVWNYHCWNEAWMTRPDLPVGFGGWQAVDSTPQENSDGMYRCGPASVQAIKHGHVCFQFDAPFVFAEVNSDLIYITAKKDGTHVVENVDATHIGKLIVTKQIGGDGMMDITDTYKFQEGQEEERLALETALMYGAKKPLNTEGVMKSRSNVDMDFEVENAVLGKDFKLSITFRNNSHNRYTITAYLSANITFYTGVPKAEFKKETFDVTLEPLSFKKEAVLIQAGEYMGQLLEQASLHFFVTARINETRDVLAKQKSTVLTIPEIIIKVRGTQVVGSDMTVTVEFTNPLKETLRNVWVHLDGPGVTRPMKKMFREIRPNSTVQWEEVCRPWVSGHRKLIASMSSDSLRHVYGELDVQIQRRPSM

[3] = target: T1, recombinant inactive factor XIII A …; details: remark: other sources report otherwise
[4] = target: the molecule itself
[5] = target: the molecule itself; remark: listed apart in the source

stoichiometry N [1]: 2
Molecule: Factor XIII A subunit of plasma-purified inactive factor XIII (pFXIII-A2B2) (from UniProt P00488 39-732) (enzyme)

stoichiometry N [2]: 2
stoichiometry N [3]: 2
B1: recombinant inactive factor XIII A subunit from ZymoGenetics (rFXIII-A2), P00488 1-732 (enzyme)
chain: T1 chain

B2: recombinant factor XIII B subunit from Zedira (rFXIII-B2) (natural protein, human, UniProt P05160 21-661, looked up)
chain: EEKPCGFPHVENGRIAQYYYTFKSFYFPMSIDKKLSFFCLAGYTTESGRQEEQTTCTTEGWSPEPRCFKKCTKPDLSNGYISDVKLLYKIQENMRYGCASGYKTTGGKDEEVVQCLSDGWSSQPTCRKEHETCLAPELYNGNYSTTQKTFKVKDKVQYECATGYYTAGGKKTEEVECLTYGWSLTPKCTKLKCSSLRLIENGYFHPVKQTYEEGDVVQFFCHENYYLSGSDLIQCYNFGWYPESPVCEGRRNRCPPPPLPINSKIQTHSTTYRHGEIVHIECELNFEIHGSAEIRCEDGKWTEPPKCIEGQEKVACEEPPFIENGAANLHSKIYYNGDKVTYACKSGYLLHGSNEITCNRGKWTLPPECVENNENCKHPPVVMNGAVADGILASYATGSSVEYRCNEYYLLRGSKISRCEQGKWSSPPVCLEPCTVNVDYMNRNNIEMKWKYEGKVLHGDLIDFVCKQGYDLSPLTPLSELSVQCNRGEVKYPLCTRKESKGMCTSPPLIKHGVIISSTVDTYENGSSVEYRCFDHHFLEGSREAYCLDGMWTTPPLCLEPCTLSFTEMEKNNLLLKWDFDNRPHILHGEYIEFICRGDTYPAELYITGSILRMQCDRGQLKYPRCIPRQSTLSYQEPLRT
modifications: glycosylation pattern different from the plasma-purified B subunit (sites not given)
stoichiometry N [4]: 2

B3: Factor XIII B subunit of plasma-purified factor XIII (natural protein, human, UniProt P05160 21-661, looked up)
chain: B2 chain
modifications: glycoprotein (sites not given)
stoichiometry N [5]: 2
